Test results as given in paper PMC3873559.

Target: human factor Xa (plasma-derived) (human)
Assay: kinetic titration of prothrombinase (thrombin generation read with a chromogenic substrate); apparent KD; limiting fXa (15 pM), fV/fVa species varied (30 pM to 10 nM; 0 to 15 nM by the legend of Fig. 4), PCPS vesicles 20 μM, DAPA 3 μM, prothrombin 1.4 μM, Spectrozyme-TH 0.4 mM; fitted to a one binding site model

Sequence of human factor Xa (plasma-derived) (human) (P00742 whole entry): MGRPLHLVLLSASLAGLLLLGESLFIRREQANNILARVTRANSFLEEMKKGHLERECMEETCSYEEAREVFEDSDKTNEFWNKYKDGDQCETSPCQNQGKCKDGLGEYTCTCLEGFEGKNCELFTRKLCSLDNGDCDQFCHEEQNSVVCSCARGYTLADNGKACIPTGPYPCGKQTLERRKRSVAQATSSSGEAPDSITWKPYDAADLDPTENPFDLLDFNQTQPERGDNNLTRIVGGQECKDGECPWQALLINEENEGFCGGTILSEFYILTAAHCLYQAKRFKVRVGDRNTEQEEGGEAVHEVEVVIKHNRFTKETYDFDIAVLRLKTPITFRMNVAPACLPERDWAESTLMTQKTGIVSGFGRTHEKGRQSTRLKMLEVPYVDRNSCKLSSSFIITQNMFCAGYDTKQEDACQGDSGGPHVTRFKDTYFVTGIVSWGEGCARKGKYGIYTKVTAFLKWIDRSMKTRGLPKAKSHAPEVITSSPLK

Row | Substance | Kd
1 | fVa purified from pooled fresh frozen normal plasma (fVa^plasma) (from UniProt P12259 29-737; P12259 1574-2224) (complex) | 0.51 nM
2 | recombinant human fV with Arg1018 and Arg1545 mutated to glutamine following incubation with thrombin (fVa^RQQ) (from UniProt P12259 29-737; P12259 738-2224) (complex) | 0.92 nM
3 | recombinant human fV with region 1000–1008 deleted and the thrombin activation cleavage sites (Arg709/Arg1018/Arg1545) mutated to glutamine (fV^ΔB9/Q3) (from UniProt P12259 29-2224) (natural protein) | 0.73 nM
4 | wild type recombinant human fV incubated with thrombin (fVa^WT) (from UniProt P12259 29-737; P12259 1574-2224) (complex) | 0.28 nM
